# Source: article PMC3164629
# Columns and labels:
# [1] = molecular target: group M consensus gp140 Env, CON-S gp140CFI, WT glycosylated (HIV-1 group M consensus); assay: SPR
# SPR = substrate: CON-S gp140CFI Env, natively deglycosylated with PNGase F 500 U per µg (HIV-1 group M consensus); assay: SPR
Binder,Kd [1] [nM],Kd (SPR) [nM]
"2F5 reverted unmutated ancestor antibody RUA1 (antibody, V domains shown) VH: QITLKESGPTLVKPTQTLTLTCTFSGFSLSTSGVGVGWIRQPPGKALEWLALIYWNDDKRYSPSLKSRLTITKDTSKNQVVLTMTNMDPVDTATYYCAHRRGPTTLFGVVIARGPVNGMDVWGQGTTVTVSS VL: AIQLTQSPSSLSASVGDRVTITCRASQGISSALAWYQQKPGKAPKLLIYDASSLESGVPSRFSGSGSGTDFTLTISSLQPEDFATYYCQQFNNYPHTFGGGTKVEIK",118,67
"2F5 reverted unmutated ancestor antibody RUA2 (antibody, V domains shown) VH: QITLKESGPTLVKPTQTLTLTCTFSGFSLSTSGVGVGWIRQPPGKALEWLALIYWDDDKRYGPSLKSRLTITKDTSKNQVVLTMTNMDPVDTATYYCAHRRGPTTLFGVVIARGPVNGMDVWGQGTTVTVSS VL: AIQLTQSPSSLSASVGDRVTITCRASQGISSALAWYQQKPGKAPKLLIYDASSLESGVPSRFSGSGSGTDFTLTISSLQPEDFATYYCQQFNNYPHTFGGGTKVEIK",4000,360
